Test results published in IntAct's records for PubMed 10524631.

B1: Phytochrome A (Arabidopsis thaliana (Mouse-ear cress)), P14712 (parent)
chain: MSGSRPTQSSEGSRRSRHSARIIAQTTVDAKLHADFEESGSSFDYSTSVRVTGPVVENQPPRSDKVTTTYLHHIQKGKLIQPFGCLLALDEKTFKVIAYSENASELLTMASHAVPSVGEHPVLGIGTDIRSLFTAPSASALQKALGFGDVSLLNPILVHCRTSAKPFYAIIHRVTGSIIIDFEPVKPYEVPMTAAGALQSYKLAAKAITRLQSLPSGSMERLCDTMVQEVFELTGYDRVMAYKFHEDDHGEVVSEVTKPGLEPYLGLHYPATDIPQAARFLFMKNKVRMIVDCNAKHARVLQDEKLSFDLTLCGSTLRAPHSCHLQYMANMDSIASLVMAVVVNEEDGEGDAPDATTQPQKRKRLWGLVVCHNTTPRFVPFPLRYACEFLAQVFAIHVNKEVELDNQMVEKNILRTQTLLCDMLMRDAPLGIVSQSPNIMDLVKCDGAALLYKDKIWKLGTTPSEFHLQEIASWLCEYHMDSTGLSTDSLHDAGFPRALSLGDSVCGMAAVRISSKDMIFWFRSHTAGEVRWGGAKHDPDDRDDARRMHPRSSFKAFLEVVKTRSLPWKDYEMDAIHSLQLILRNAFKDSETTDVNTKVIYSKLNDLKIDGIQELEAVTSEMVRLIETATVPILAVDSDGLVNGWNTKIAELTGLSVDEAIGKHFLTLVEDSSVEIVKRMLENALEGTEEQNVQFEIKTHLSRADAGPISLVVNACASRDLHENVVGVCFVAHDLTGQKTVMDKFTRIEGDYKAIIQNPNPLIPPIFGTDEFGWCTEWNPAMSKLTGLKREEVIDKMLLGEVFGTQKSCCRLKNQEAFVNLGIVLNNAVTSQDPEKVSFAFFTRGGKYVECLLCVSKKLDREGVVTGVFCFLQLASHELQQALHVQRLAERTAVKRLKALAYIKRQIRNPLSGIMFTRKMIEGTELGPEQRRILQTSALCQKQLSKILDDSDLESIIEGCLDLEMKEFTLNEVLTASTSQVMMKSNGKSVRITNETGEEVMSDTLYGDSIRLQQVLADFMLMAVNFTPSGGQLTVSASLRKDQLGRSVHLANLEIRLTHTGAGIPEFLLNQMFGTEEDVSEEGLSLMVSRKLVKLMNGDVQYLRQAGKSSFIITAELAAANK
partner: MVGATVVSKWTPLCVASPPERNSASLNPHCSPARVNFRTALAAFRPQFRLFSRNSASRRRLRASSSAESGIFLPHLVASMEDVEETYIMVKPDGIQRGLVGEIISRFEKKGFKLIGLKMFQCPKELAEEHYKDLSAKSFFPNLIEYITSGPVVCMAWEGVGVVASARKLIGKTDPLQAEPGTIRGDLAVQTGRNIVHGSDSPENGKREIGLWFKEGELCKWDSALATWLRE

Variants of: B1
Details: with ndk2_arath NDPK2, O64903

Row | Variant | effect of a mutation on the interaction
1 | G750E | decreasing interaction strength
2 | G727E | decreasing interaction
